Data published in the supplement of paper PMC11316812.
± gives the standard deviation of the averaged measurements.

Experiments:
MCF7 = assay: percentage of EdU-negative (G0-arrested) nuclei per well, 72 h; higher = more G0 arrest; conditions: reference: sequence is the full UniProt precursor, the tested protein was the secreted form or ectodomain
hTERT-HMEC = assay: as above; conditions: reference: sequence is the full UniProt precursor, the tested protein was the secreted form or ectodomain
[1] = protein concentration 0.01975 µM
[2] = protein concentration 0.1975 µM
[3] = protein concentration 0.0225 µM
[4] = protein concentration 0.0202725 µM
[5] = protein concentration 0.202725 µM
[6] = protein concentration 0.0257143 µM
[7] = protein concentration 0.257143 µM
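Further: secreted proteins added to cultured cells, EdU pulse at the end, nuclei found by Hoechst imaging, EdU status from nuclear versus surrounding ring intensity ratio, PBS as neutral control.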

Q6ZMJ2, sequence (chain, as listed by the source): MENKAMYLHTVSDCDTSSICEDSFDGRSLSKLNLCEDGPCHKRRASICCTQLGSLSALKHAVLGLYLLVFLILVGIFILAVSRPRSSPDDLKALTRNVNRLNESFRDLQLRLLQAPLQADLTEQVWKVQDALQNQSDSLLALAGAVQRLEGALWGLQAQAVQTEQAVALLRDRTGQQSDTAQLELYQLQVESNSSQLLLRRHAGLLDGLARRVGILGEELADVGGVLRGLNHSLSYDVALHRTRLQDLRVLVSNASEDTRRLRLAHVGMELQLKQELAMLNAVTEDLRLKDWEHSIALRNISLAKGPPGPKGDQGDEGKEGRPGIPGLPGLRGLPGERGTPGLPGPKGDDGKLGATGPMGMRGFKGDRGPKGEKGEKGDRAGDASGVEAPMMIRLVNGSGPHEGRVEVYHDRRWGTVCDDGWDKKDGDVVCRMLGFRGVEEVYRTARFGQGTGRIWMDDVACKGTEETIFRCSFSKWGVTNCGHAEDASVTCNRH

Substance	percentage of EdU-negative (MCF7; [3])	percentage of EdU-negative (MCF7; protein concentration 0.225 µM)	percentage of EdU-negative (hTERT-HMEC; [3])	percentage of EdU-negative (hTERT-HMEC; protein concentration 0.225 µM)	further results
MGPLMVLFCLLFLYPGLADSAPSCPQNVNISGGTFTLSHGWAPGSLLTYSCPQGLYPSPASRLCKSSGQWQTPGATRSLSKAVCKPVRCPAPVSFENGIYTPRLGSYPVGGNVSFECEDGFILRGSPVRQCRPNGMWDGETAVCDNGAGHCPNPGISLGAVRTGFRFGHGDKVRYRCSSNLVLTGSSERECQGNGVWSGTEPICRQPYSYDFPEDVAPALGTSFSHMLGATNPTQKTKESLGRKIQIQRSGHLNLYLLLDCSQSVSENDFLIFKESASLMVDRIFSFEINVSVAIITFASEPKVLMSVLNDNSRDMTEVISSLENANYKDHENGTGTNTYAALNSVYLMMNNQMRLLGMETMAWQEIRHAIILLTDGKSNMGGSPKTAVDHIREILNINQKRNDYLDIYAIGVGKLDVDWRELNELGSKKDGERHAFILQDTKALHQVFEHMLDVSKLTDTICGVGNMSANASDQERTPWHVTIKPKSQETCRGALISDQWVLTAAHCFRDGNDHSLWRVNVGDPKSQWGKEFLIEKAVISPGFDVFAKKNQGILEFYGDDIALLKLAQKVKMSTHARPICLPCTMEANLALRRPQGSTCRDHENELLNKQSVPAHFVALNGSKLNINLKMGVEWTSCAEVVSQEKTMFPNLTDVREVVTDQFLCSGTQEDESPCKGESGGAVFLERRFRFFQVGLVSWGLYNPCLGSADKNSRKRAPRSKVPPPRDFHINLFRMQPWLRQHLGDVLNFLPL					percentage of EdU-negative (MCF7; [1]): 27.3 ± 1.1%; percentage of EdU-negative (MCF7; [2]): 27.9 ± 2%; percentage of EdU-negative (hTERT-HMEC; [1]): 5.66 ± 0.4%; percentage of EdU-negative (hTERT-HMEC; [2]): 16.21 ± 0.11%
MKTGHFEIVTMLLATMILVDIFQVKAEVLDMADNAFDDEYLKCTDRMEIKYVPQLLKEEKASHQQLDTVWENAKAKWAARKTQIFLPMNFKDNHGIALMAYISEAQEQTPFYHLFSEAVKMAGQSREDYIYGFQFKAFHFYLTRALQLLRKPCEASSKTVVYRTSQGTSFTFGGLNQARFGHFTLAYSAKPQAANDQLTVLSIYTCLGVDIENFLDKESERITLIPLNEVFQVSQEGAGNNLILQSINKTCSHYECAFLGGLKTENCIENLEYFQPIYVYNPGEKNQKLEDHSEKNWKLEDHGEKNQKLEDHGVKILEPTQIPGMKIPEPFPLPEDKSQGNINNPTPGPVPVPGPKSHPSASSGKLLLPQFGMVIILISVSAINLFVAL	24.99 ± 0.071%	27.3 ± 1.4%	4.51 ± 0.24%	5.22 ± 0.84%	
MGLEKPQSKLEGGMHPQLIPSVIAVVFILLLSVCFIASCLVTHHNFSRCKRGTGVHKLEHHAKLKCIKEKSELKSAEGSTWNCCPIDWRAFQSNCYFPLTDNKTWAESERNCSGMGAHLMTISTEAEQNFIIQFLDRRLSYFLGLRDENAKGQWRWVDQTPFNPRRVFWHKNEPDNSQGENCVVLVYNQDKWAWNDVPCNFEASRICKIPGTTLN [Q8WXI8]	23.5 ± 0.48%	25.2 ± 0.46%	6.12 ± 0.23%	6.07 ± 0.51%	
MERDGCAGGGSRGGEGGRAPREGPAGNGRDRGRSHAAEAPGDPQAAASLLAPMDVGEEPLEKAARARTAKDPNTYKVLSLVLSVCVLTTILGCIFGLKPSCAKEVKSCKGRCFERTFGNCRCDAACVELGNCCLDYQETCIEPEHIWTCNKFRCGEKRLTRSLCACSDDCKDKGDCCINYSSVCQGEKSWVEEPCESINEPQCPAGFETPPTLLFSLDGFRAEYLHTWGGLLPVISKLKKCGTYTKNMRPVYPTKTFPNHYSIVTGLYPESHGIIDNKMYDPKMNASFSLKSKEKFNPEWYKGEPIWVTAKYQGLKSGTFFWPGSDVEINGIFPDIYKMYNGSVPFEERILAVLQWLQLPKDERPHFYTLYLEEPDSSGHSYGPVSSEVIKALQRVDGMVGMLMDGLKELNLHRCLNLILISDHGMEQGSCKKYIYLNKYLGDVKNIKVIYGPAARLRPSDVPDKYYSFNYEGIARNLSCREPNQHFKPYLKHFLPKRLHFAKSDRIEPLTFYLDPQWQLALNPSERKYCGSGFHGSDNVFSNMQALFVGYGPGFKHGIEADTFENIEVYNLMCDLLNLTPAPNNGTHGSLNHLLKNPVYTPKHPKEVHPLVQCPFTRNPRDNLGCSCNPSILPIEDFQTQFNLTVAEEKIIKHETLPYGRPRVLQKENTICLLSQHQFMSGYSQDILMPLWTSYTVDRNDSFSTEDFSNCLYQDFRIPLSPVHKCSFYKNNTKVSYGFLSPPQLNKNSSGIYSEALLTTNIVPMYQSFQVIWRYFHDTLLRKYAEERNGVNVVSGPVFDFDYDGRCDSLENLRQKRRVIRNQEILIPTHFFIVLTSCKDTSQTPLHCENLDTLAFILPHRTDNSESCVHGKHDSSWVEELLMLHRARITDVEHITGLSFYQQRKEPVSDILKLKTHLPTFSQED					percentage of EdU-negative (MCF7; [4]): 25.1 ± 0.47%; percentage of EdU-negative (MCF7; [5]): 24.77 ± 0.21%; percentage of EdU-negative (hTERT-HMEC; [4]): 4.82 ± 0.41%; percentage of EdU-negative (hTERT-HMEC; [5]): 5.77 ± 0.8%
MWQLLLPTALLLLVSAGMRTEDLPKAVVFLEPQWYSVLEKDSVTLKCQGAYSPEDNSTQWFHNENLISSQASSYFIDAATVNDSGEYRCQTNLSTLSDPVQLEVHIGWLLLQAPRWVFKEEDPIHLRCHSWKNTALHKVTYLQNGKDRKYFHHNSDFHIPKATLKDSGSYFCRGLVGSKNVSSETVNITITQGLAVSTISSFSPPGYQVSFCLVMVLLFAVDTGLYFSVKTNI	25.6 ± 2.5%	25.5 ± 3.6%	4.18 ± 0.071%	4.98 ± 1.1%	
Q6ZMJ2					percentage of EdU-negative (MCF7; [6]): 24.7 ± 1.6%; percentage of EdU-negative (MCF7; [7]): 24.2 ± 0.89%; percentage of EdU-negative (hTERT-HMEC; [6]): 4.96 ± 0.49%; percentage of EdU-negative (hTERT-HMEC; [7]): 8.139 ± 0.079%
